Earlier results on 1 substance are cited in publication PMC8281132.

This data set has as its target CD155 (Homo sapiens) (UniProt P15151).
UniProt P15151, sequence (P15151 21-343): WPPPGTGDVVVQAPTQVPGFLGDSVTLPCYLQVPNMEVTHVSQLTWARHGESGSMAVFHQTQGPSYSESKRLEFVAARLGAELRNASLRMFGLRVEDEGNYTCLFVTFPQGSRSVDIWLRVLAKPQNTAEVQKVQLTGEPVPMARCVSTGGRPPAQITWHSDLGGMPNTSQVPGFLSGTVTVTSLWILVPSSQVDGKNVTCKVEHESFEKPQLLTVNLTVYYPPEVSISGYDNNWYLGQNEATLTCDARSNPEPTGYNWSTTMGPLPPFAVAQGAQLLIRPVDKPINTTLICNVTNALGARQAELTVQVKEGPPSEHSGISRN

As for TIGIT (from UniProt Q495A1), the Kd is 2 nM.
